Data as given in patent US20220372200.

T1: poly[(KLAAm10-co-DMA10)-b-(DAAm140-co-DMA60)] (NP4)
T1 sequence: KLAKLAKKLAKLAK

T2: KLA peptide acrylamide monomer (KLAAm)
T2 sequence: KLAKLAKKLAKLAK

T3: poly[(KLAAm10-co-DMA30)-b-(DAAm140-co-DMA60)] (NP2)
T3 sequence: KLAKLAKKLAKLAK

T4: poly(KLAAm10-co-DMA10)
T4 sequence: KLAKLAKKLAKLAK

T5: poly[(KLAAm10-co-DMA10)-b-(DAAm280-co-DMA120)] (NP5)
T5 sequence: KLAKLAKKLAKLAK

T6: poly[(KLAAm10-co-DMA30)-b-(DAAm70-co-DMA30)] (NP1)
T6 sequence: KLAKLAKKLAKLAK

T7: poly[(KLAAm10-co-DMA30)-b-(DAAm280-co-DMA120)] (NP3)
T7 sequence: KLAKLAKKLAKLAK

T8: poly(PepAm21-co-DMA71) (P4)
T8 chain: GPLGLAGG


How the values were obtained:
[1] = test system: T1, poly[(KLAAm10-co-DMA10)-b-(DAAm140-co-DMA60)] (NP4)
[2] = test system: T2, KLA peptide acrylamide monomer (KLAAm)
[3] = test system: T3, poly[(KLAAm10-co-DMA30)-b-(DAAm140-co-DMA60)] (NP2)
poly(KLAAm10-co-DMA10) = test system: T4, poly(KLAAm10-co-DMA10)
[4] = test system: T5, poly[(KLAAm10-co-DMA10)-b-(DAAm280-co-DMA120)] (NP5)
[5] = test system: T6, poly[(KLAAm10-co-DMA30)-b-(DAAm70-co-DMA30)] (NP1)
[6] = test system: T7, poly[(KLAAm10-co-DMA30)-b-(DAAm280-co-DMA120)] (NP3)
[7] = biological target: T8, poly(PepAm21-co-DMA71) (P4)

Molecule	percent of KLA peptide left uncleaved after 1 h (HPLC) [1]	percent cleavage by HPLC [2]	percent of KLA peptide left uncleaved after 1 h (HPLC) [3]	percent of side-chain peptides cleaved by HPLC (poly(KLAAm10-co-DMA10))	percent of KLA peptide left uncleaved after 1 h (HPLC) [4]	percent of KLA peptide left uncleaved after 1 h (HPLC) [5]	percent of KLA peptide left uncleaved after 1 h (HPLC) [6]	cleavage of side-chain peptides monitored by HPLC [7]
trypsin	more than 70% of KLA peptide survived during the first hour of cleavage	the KLA peptide underwent fast degradation, reaching 100% cleavage within 1 h	more than 70% of KLA peptide survived during the first hour of cleavage	more than 90% of the side-chain peptides were cleaved within 1 h	more than 70% of KLA peptide survived during the first hour of cleavage	more than 70% of KLA peptide survived during the first hour of cleavage	more than 70% of KLA peptide survived during the first hour of cleavage	
thermolysin (protein) ITGTSTVGVGRGVLGDQKNINTTYSTYYYLQDNTRGNGIFTYDAKYRTTLPGSLWADADNQFFASYDAPAVDAHYYAGVTYDYYKNVHNRLSYDGNNAAIRSSVHYSQGYNNAFWNGSQMVYGDGDGQTFIPLSGGIDVVAHELTHAVTDYTAGLIYQNESGAINEAISDIFGTLVEFYANKNPDWEIGEDVYTPGISGDSLRSMSDPAKYGDPDHYSKRYTGTQDNGGVHINSGIINKAAYLISQGGTHYGVSVVGIGRDKLGKIFYRALTQYLTPTSNFSQLRAAAVQSATDLYGSTSQEVASVKQAFDAVGVK								the polypeptide brushes were rapidly cleaved within 1 hour under the investigated conditions
